In the test the target is SARS-CoV-2 S蛋白(spike protein)，展示于假病毒表面 (SARS-CoV-2) (UniProt P0DTC2). In words: cell-based or functional assay.

Drawing on CN114736293A, this text covers IC50(假病毒中和试验), 中和活性，相对大肠杆菌表达的铁蛋白融合蛋白的倍数 and 对假病毒的中和活性，相对单独表达的纳米抗体H11-D4的倍数 for one substance.

“自组装铁蛋白融合纳米抗体Ferritin-H11-D4(家蚕杆状病毒表达系统表达)” returned an IC50(假病毒中和试验) of 2.19 nM, a 中和活性，相对大肠杆菌表达的铁蛋白融合蛋白的倍数 of 20 fold and a 对假病毒的中和活性，相对单独表达的纳米抗体H11-D4的倍数 of 8 fold.
